{"source": "patent US20230293638A1", "about": "(Eli Lilly, published 2023)", "binders": {"B1": {"name": "Peptide 264 (peptide)", "peptide": "YXEGTXTSDXSIXLDXKAQXEFIXXLIEGGPSSG", "modifications": "Aib2; αMeF(2F)6; 4Pal10; αMeL13; Orn16; K17((2-[2-(2-Amino-ethoxy)-ethoxy]-acetyl)2-(γGlu)-CO-(CH2)16-CO2H); Aib20; D-Glu24; αMeY25; C-terminal NH2"}, "B2": {"name": "Peptide 31 (peptide)", "peptide": "Y[Aib]EGTFTSDYSILLDKIAK([AEEA-AEEA-γGlu-C20 diacid])[Aib]AFIEYLIEGGPSSGAPPPS-NH2", "modifications": "N-terminus assumed", "SMILES": "CC[C@H](C)[C@H](NC(=O)[C@H](CCCCN)NC(=O)[C@H](CC(=O)O)NC(=O)[C@H](CC(C)C)NC(=O)[C@H](CC(C)C)NC(=O)[C@@H](NC(=O)[C@H](CO)NC(=O)[C@H](Cc1ccc(O)cc1)NC(=O)[C@H](CC(=O)O)NC(=O)[C@H](CO)NC(=O)[C@@H](NC(=O)[C@H](Cc1ccccc1)NC(=O)[C@@H](NC(=O)CNC(=O)[C@H](CCC(=O)O)NC(=O)C(C)(C)NC(=O)[C@@H](N)Cc1ccc(O)cc1)[C@@H](C)O)[C@@H](C)O)[C@@H](C)CC)C(=O)N[C@@H](C)C(=O)N[C@@H](CCCCNC(=O)COCCOCCNC(=O)COCCOCCNC(=O)CC[C@H](NC(=O)CCCCCCCCCCCCCCCCCCC(=O)O)C(=O)O)C(=O)NC(C)(C)C(=O)N[C@@H](C)C(=O)N[C@@H](Cc1ccccc1)C(=O)N[C@H](C(=O)N[C@@H](CCC(=O)O)C(=O)N[C@@H](Cc1ccc(O)cc1)C(=O)N[C@@H](CC(C)C)C(=O)N[C@H](C(=O)N[C@@H](CCC(=O)O)C(=O)NCC(=O)NCC(=O)N1CCC[C@H]1C(=O)N[C@@H](CO)C(=O)N[C@@H](CO)C(=O)NCC(=O)N[C@@H](C)C(=O)N1CCC[C@H]1C(=O)N1CCC[C@H]1C(=O)N1CCC[C@H]1C(=O)N[C@@H](CO)C(N)=O)[C@@H](C)CC)[C@@H](C)CC"}, "B3": {"name": "Peptide 32 (peptide)", "peptide": "Y[Aib]EGTFTSDYSILLDKIAQ[Aib]K([AEEA-AEEA-γGlu-C20 diacid])FIEYLIEGGPSSGAPPPS-NH2", "modifications": "N-terminus assumed", "SMILES": "CC[C@H](C)[C@H](NC(=O)[C@H](CCCCN)NC(=O)[C@H](CC(=O)O)NC(=O)[C@H](CC(C)C)NC(=O)[C@H](CC(C)C)NC(=O)[C@@H](NC(=O)[C@H](CO)NC(=O)[C@H](Cc1ccc(O)cc1)NC(=O)[C@H](CC(=O)O)NC(=O)[C@H](CO)NC(=O)[C@@H](NC(=O)[C@H](Cc1ccccc1)NC(=O)[C@@H](NC(=O)CNC(=O)[C@H](CCC(=O)O)NC(=O)C(C)(C)NC(=O)[C@@H](N)Cc1ccc(O)cc1)[C@@H](C)O)[C@@H](C)O)[C@@H](C)CC)C(=O)N[C@@H](C)C(=O)N[C@@H](CCC(N)=O)C(=O)NC(C)(C)C(=O)N[C@@H](CCCCNC(=O)COCCOCCNC(=O)COCCOCCNC(=O)CC[C@H](NC(=O)CCCCCCCCCCCCCCCCCCC(=O)O)C(=O)O)C(=O)N[C@@H](Cc1ccccc1)C(=O)N[C@H](C(=O)N[C@@H](CCC(=O)O)C(=O)N[C@@H](Cc1ccc(O)cc1)C(=O)N[C@@H](CC(C)C)C(=O)N[C@H](C(=O)N[C@@H](CCC(=O)O)C(=O)NCC(=O)NCC(=O)N1CCC[C@H]1C(=O)N[C@@H](CO)C(=O)N[C@@H](CO)C(=O)NCC(=O)N[C@@H](C)C(=O)N1CCC[C@H]1C(=O)N1CCC[C@H]1C(=O)N1CCC[C@H]1C(=O)N[C@@H](CO)C(N)=O)[C@@H](C)CC)[C@@H](C)CC"}, "B4": {"name": "Peptide 37 (peptide)", "peptide": "Y[Aib]EGTFTSDYSILLDKIAQ[Aib]AFIEYLIK([AEEA-AEEA-γGlu-C20 diacid])GGPSSGAPPPS-NH2", "modifications": "N-terminus assumed", "SMILES": "CC[C@H](C)[C@H](NC(=O)[C@H](CCCCN)NC(=O)[C@H](CC(=O)O)NC(=O)[C@H](CC(C)C)NC(=O)[C@H](CC(C)C)NC(=O)[C@@H](NC(=O)[C@H](CO)NC(=O)[C@H](Cc1ccc(O)cc1)NC(=O)[C@H](CC(=O)O)NC(=O)[C@H](CO)NC(=O)[C@@H](NC(=O)[C@H](Cc1ccccc1)NC(=O)[C@@H](NC(=O)CNC(=O)[C@H](CCC(=O)O)NC(=O)C(C)(C)NC(=O)[C@@H](N)Cc1ccc(O)cc1)[C@@H](C)O)[C@@H](C)O)[C@@H](C)CC)C(=O)N[C@@H](C)C(=O)N[C@@H](CCC(N)=O)C(=O)NC(C)(C)C(=O)N[C@@H](C)C(=O)N[C@@H](Cc1ccccc1)C(=O)N[C@H](C(=O)N[C@@H](CCC(=O)O)C(=O)N[C@@H](Cc1ccc(O)cc1)C(=O)N[C@@H](CC(C)C)C(=O)N[C@H](C(=O)N[C@@H](CCCCNC(=O)COCCOCCNC(=O)COCCOCCNC(=O)CC[C@H](NC(=O)CCCCCCCCCCCCCCCCCCC(=O)O)C(=O)O)C(=O)NCC(=O)NCC(=O)N1CCC[C@H]1C(=O)N[C@@H](CO)C(=O)N[C@@H](CO)C(=O)NCC(=O)N[C@@H](C)C(=O)N1CCC[C@H]1C(=O)N1CCC[C@H]1C(=O)N1CCC[C@H]1C(=O)N[C@@H](CO)C(N)=O)[C@@H](C)CC)[C@@H](C)CC"}, "B5": {"name": "Peptide 34 (peptide)", "peptide": "Y[Aib]EGTFTSDYSILLDKIAQ[Aib]AFIK([AEEA-AEEA-γGlu-C20 diacid])YLIEGGPSSGAPPPS-NH2", "modifications": "N-terminus assumed", "SMILES": "CC[C@H](C)[C@H](NC(=O)[C@H](CCCCN)NC(=O)[C@H](CC(=O)O)NC(=O)[C@H](CC(C)C)NC(=O)[C@H](CC(C)C)NC(=O)[C@@H](NC(=O)[C@H](CO)NC(=O)[C@H](Cc1ccc(O)cc1)NC(=O)[C@H](CC(=O)O)NC(=O)[C@H](CO)NC(=O)[C@@H](NC(=O)[C@H](Cc1ccccc1)NC(=O)[C@@H](NC(=O)CNC(=O)[C@H](CCC(=O)O)NC(=O)C(C)(C)NC(=O)[C@@H](N)Cc1ccc(O)cc1)[C@@H](C)O)[C@@H](C)O)[C@@H](C)CC)C(=O)N[C@@H](C)C(=O)N[C@@H](CCC(N)=O)C(=O)NC(C)(C)C(=O)N[C@@H](C)C(=O)N[C@@H](Cc1ccccc1)C(=O)N[C@H](C(=O)N[C@@H](CCCCNC(=O)COCCOCCNC(=O)COCCOCCNC(=O)CC[C@H](NC(=O)CCCCCCCCCCCCCCCCCCC(=O)O)C(=O)O)C(=O)N[C@@H](Cc1ccc(O)cc1)C(=O)N[C@@H](CC(C)C)C(=O)N[C@H](C(=O)N[C@@H](CCC(=O)O)C(=O)NCC(=O)NCC(=O)N1CCC[C@H]1C(=O)N[C@@H](CO)C(=O)N[C@@H](CO)C(=O)NCC(=O)N[C@@H](C)C(=O)N1CCC[C@H]1C(=O)N1CCC[C@H]1C(=O)N1CCC[C@H]1C(=O)N[C@@H](CO)C(N)=O)[C@@H](C)CC)[C@@H](C)CC"}, "B6": {"name": "Peptide 247 (peptide)", "peptide": "YXEGTXTSDYSIXLDXKAQXEFIXYLIEGGPSSGAPPPS", "modifications": "not fully specified; Aib2; αMeF(2F)6; Aib13; Orn16; K17((2-[2-(2-Amino-ethoxy)-ethoxy]-acetyl)2-(γGlu)-CO-(CH2)16-CO2H); Aib20; D-Glu24; C-terminal NH2"}, "B7": {"name": "Peptide 249 (peptide)", "peptide": "B6 peptide", "modifications": "not fully specified; Aib2; αMeF(2F)6; Nle13; Orn16; K17((2-[2-(2-Amino-ethoxy)-ethoxy]-acetyl)2-(γGlu)-CO-(CH2)16-CO2H); Aib20; D-Glu24; C-terminal NH2"}, "B8": {"name": "Peptide 250 (peptide)", "peptide": "B6 peptide", "modifications": "Aib2; αMeF(2F)6; Aib13; Orn16; K17((2-[2-(2-Amino-ethoxy)-ethoxy]-acetyl)2-(γGlu)-CO-(CH2)18-CO2H); Aib20; D-Glu24; C-terminal NH2"}, "B9": {"name": "Peptide 248 (peptide)", "peptide": "B6 peptide with X13L", "modifications": "not fully specified; Aib2; αMeF(2F)6; Orn16; K17((2-[2-(2-Amino-ethoxy)-ethoxy]-acetyl)2-(γGlu)-CO-(CH2)16-CO2H); Aib20; D-Glu24; C-terminal NH2"}, "B10": {"name": "Peptide 251 (peptide)", "peptide": "B6 peptide with Y10X, E21A, Y25X", "modifications": "Aib2; αMeF(2F)6; 4Pal10; αMeL13; Orn16; K17((2-[2-(2-Amino-ethoxy)-ethoxy]-acetyl)2-(εK)-CO-(CH2)18-CO2H); Aib20; D-Glu24; αMeY25; C-terminal NH2"}}, "target": "human GLP-1 receptor (human, UniProt P43220 24-463)", "assay": "cell-based or functional assay", "note": "Changes are numbered by the printed parent chain. Numbered stars: 1 amine (or outer) side, 2 acyl side, 3 side chain; on linkers, the order of the positions; unused ones are H or OH. Square brackets hold non-standard residues; d marks the D form. Side chains are listed from the residue outwards. Ends that are not written are not given here. * marks the point of attachment. C20 diacid = O=C(O)CCCCCCCCCCCCCCCCCCC(=O)*; γGlu = O=C(O)[C@H](CCC(=O)[*:2])N[*:1]; AEEA = NCCOCCOCC(=O)O; Aib = CC(C)(N)C(=O)O", "data": [{"binder": "Y[Aib]EGTFTSDYSILLDKIAQ[Aib]AFK([AEEA-AEEA-γGlu-C20 diacid])EYLIEGGPSSGAPPPS-NH2", "note": "[Peptide 33]", "values": [{"measurement": "hGLPIR cAMP EC50 ratio", "value": 0.000256}]}, {"binder": "B1", "values": [{"measurement": "hGLPIR cAMP EC50 ratio", "value": 3.19}]}, {"binder": "B2", "values": [{"measurement": "hGLPIR cAMP EC50 ratio", "value": 0.0708}]}, {"binder": "B3", "values": [{"measurement": "hGLPIR cAMP EC50 ratio", "value": 0.136}]}, {"binder": "B4", "values": [{"measurement": "hGLPIR cAMP EC50 ratio", "value": 0.0533}]}, {"binder": "B5", "values": [{"measurement": "hGLPIR cAMP EC50 ratio", "value": 0.0392}]}, {"binder": "B6", "values": [{"measurement": "hGLPIR cAMP EC50 ratio", "value": 0.614}]}, {"binder": "B7", "values": [{"measurement": "hGLPIR cAMP EC50 ratio", "value": 0.778}]}, {"binder": "B8", "values": [{"measurement": "hGLPIR cAMP EC50 ratio", "value": 0.985}]}, {"binder": "B9", "values": [{"measurement": "hGLPIR cAMP EC50 ratio", "value": 0.8}]}, {"binder": "B10", "values": [{"measurement": "hGLPIR cAMP EC50 ratio", "value": 1.37}]}]}
